The values that follow come from patent US12472269B2, “Liver-specific inducible promoters and methods of use thereof” (ASKBIO INC., priority 2019, dated 2025).

This data set deals with CD1 male mice. Put plainly: In vivo bioluminescence imaging of mice injected with AAV9 constructs, induction by phenobarbital. The method, then: • Seed HEK 293-AAV cells in 15 cm plates. To be 70-80% confluent on the day of transfection • Final volume on each plate: 15 ml Day 2: Prepare Transfection Mix: • DNA mix/plate: pDG9 (Packaging plasmid for AAV9): 10.5 μg/pHGTI (Ad. Helper plasmid): 31.5 μg/Vector plasmid: 10.5 μg/Prepare in serum free DMEM/Optimem • Transfer mix/plate: PEI: 125 μl/Prepare in serum free DMEM/Optimem • Add DNA mix into transfection mix. Mix and leave at room temperature for 15-20 mins. • Add 3 ml of transfection mix to each plate drop-wise and gently distribute. Incubate for 24 h. Day 3: • Replace media with 15 ml DMEM supplemented with P/S and 2% FCS. Leave for 48 h. Day 5: • Collect supernatant and pool in 50 ml tubes, 25 ml each tube. Store at −20° C. • Collect cells: Add 5 ml of PBS to each plate→scrape and collect in 50 ml tubes. • To wash plates, add another 1 ml of PBS and collect. • Spin at 1500 rpm for 5 mins. • Remove supernatant and resuspend pelleted cells in 1 ml/plate TD lysis buffer→pool • Store at −80′C. Endonuclease Treatment Cells: • Freeze and thaw pellets 5 times→˜20 mins at 37° C. then ˜20 mins in dry ice (or −80° C.). • Add 25 μl/ml cells of 20% Deoxycholate (or 50 μl/ml of 10% Deoxycholate). • Add 8 μl/ml cells of benzonase. • Incubate at 37° C. for 30 mins. • Spin at 4 Krpm for 30 mins. • Filter supernatant using […] filters. • Store at 4° C. for up to 24 h. Supernatant: • Add 2.5 μl/25 ml supernatant of benzonase. • Add 50 μl/25 ml supernatant of MgSO4. • Incubate at 37° C. for 30 mins. • Spin at 4 Krpm for 30 mins. • Filter supernatant using […] filters. • Store at 4′C for up to 24 h. Hplc Purification • Place both lines in 20% ETOH→template→system wash • Put line A in PBS and line B in Glycine→template→system wash • Place the column in the machine→manual run→flowrate: 5 ml/min→Run for 25 ml or until the UV line is flat. • Prepare FACS tubes (10 for cells and more for supernatant): add 30 μl/tube Tris→put in the machine to collect vectors. • Place the waste lines in a separate tube to be able to run them again through the column. • Run samples (flowrate low, depending on how fast the system and how concentrated the sample is; for cells it is slower, for supernatant it is higher). • After running the waste through the column, wash with PBS→flowrate: 5 ml/min until the UV line is flat. • Set→fraction size: 1 ml; Flowrate: 1 ml/min; concentration % B: 100%→run. • Start collecting: Look for the peak. The peak indicates vector purification. Mark the tubes containing these vectors. • Save programme before exiting. • Wash with PBS→75 ml, 5 ml/min • Wash with Na3PO4 (to store the column in)→75 ml, 5 ml/min • Remove column and store at 4° C. • Wash the machine with PBS→template→system wash • Wash the machine with 20% ETOH→template→system wash • Put both lines in 20% ETOH and shut down • Add 2 L of PBS into a big bucket and put the Dialysis cassette (Side-A-Lyzer; Thermo scientific) to prime. • Collect the vectors from the marked FACS tubes using a syringe and needle and add into the dialysis cassette→remove excess air from the membrane, carefully place the rubber on top of the cassette and let it float in the PBS-containing bucket→leave over night at room temperature on a slow rotating rotor. Next Day: • Prime membrane by adding 5 ml PBS onto a centrifugal filter (Amico Ultra 15; MERCK)→spin for 5 mins at 4 Krpm • Remove excess PBS from inside the membrane. • Take vectors out from the cassette and load onto the membrane→spin for 5 mins at 4 Krpm • Wash the membrane with the vectors inside few times, then collect into 2 ml centrifuge tube filter 0.22 μM (Spin-X; COSTAR) • Spin for 3 mins at 13 Krpm. • Remove filter and aliquot: 1×100 μl (for injection), the rest in 10-2 μl aliquots. • Store in −80° C. • Virus quantification was performed using qRT-PCR with primers and probes for the luciferase gene. Mice Experiment […]

The mark [1] stands for this setting: AAV9, phenobarbital intraperitoneally.

B1: PB1-MinTK: promoter: single mouse PBREM element and MinTK minimal promoter, SEQ ID NO: 7 (nucleic acid)
DNA: TCTGTACTTTCCTGACCTTGGCACAGTGCCACCATCAACTTGCCTGACACCGATCCGGCCCCGCCCAGCGTCTTGTCATTGGCGAATTCGAACACGCAGATGCAGTCGGGGCGGCGCGGTCCGAGGTCCACTTCGCATATTAAGGTGACGCGTGTGGCCTCGAACACCGAGCGACCCTGCAGCGACCCGCTTAACAGCGTCAACAGCGTGCCGCAGATCTCGAGGAGCTTGGCGAGATTTTCAGGAGCTAAGGAAGCTAAAC
modifications: PB1-MinTK
As to B1, for the setting “0 hrs”, the “luciferase expression before induction” value is given as “no expression of the luciferase gene”. Further, under setting [1], the “time at which induction is complete” value turned out to be 24 h and the “time of maximal activity after induction” value is 9 h. For the same molecule, under “AAV9 via tail vein”, the “tissue distribution of luciferase expression” value is “confined to the liver”.
